{"source": "paper PMC7031079", "about": "“ATBS1-INTERACTING FACTOR 2 negatively regulates dark- and brassinosteroid-induced leaf senescence through interactions with INDUCER OF CBF EXPRESSION 1” (Journal of Experimental Botany, 2019)", "binders": {"B1": {"name": "AIF2FL-nYFP (natural protein, Arabidopsis thaliana, UniProt Q9C8Z9 1-221, looked up)", "chain": "MASLISDIEPPTSTTSDLVRRKKRSSASSAASSRSSASSVSGEIHARWRSEKQQRIYSAKLFQALQQVRLNSSASTSSSPTAQKRGKAVREAADRALAVSARGRTLWSRAILANRIKLKFRKQRRPRATMAIPAMTTVVSSSSNRSRKRRVSVLRLNKKSIPDVNRKVRVLGRLVPGCGKQSVPVILEEATDYIQALEMQVRAMNSLVQLLSSYGSAPPPI"}}, "biological_target": "T1, ICE1FL-myc (Arabidopsis thaliana, UniProt Q9LSE2 1-494)", "T1 sequence (looked up)": "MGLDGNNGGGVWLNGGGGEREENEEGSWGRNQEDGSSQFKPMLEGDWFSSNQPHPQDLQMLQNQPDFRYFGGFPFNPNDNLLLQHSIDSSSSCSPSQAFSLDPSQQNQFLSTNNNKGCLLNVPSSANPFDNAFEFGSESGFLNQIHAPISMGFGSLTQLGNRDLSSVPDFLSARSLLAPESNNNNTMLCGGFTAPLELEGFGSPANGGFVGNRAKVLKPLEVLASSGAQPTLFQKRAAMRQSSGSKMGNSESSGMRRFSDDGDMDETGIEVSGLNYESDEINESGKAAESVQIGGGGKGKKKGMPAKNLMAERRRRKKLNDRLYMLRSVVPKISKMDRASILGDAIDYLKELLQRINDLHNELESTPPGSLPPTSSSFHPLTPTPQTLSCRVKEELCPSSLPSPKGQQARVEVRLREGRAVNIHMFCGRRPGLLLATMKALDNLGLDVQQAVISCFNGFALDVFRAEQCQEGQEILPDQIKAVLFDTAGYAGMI", "experiment": "cell-based or functional assay", "data": [{"binder": "B1", "values": [{"measurement": "pCBF2::Luc reporter expression in tobacco leaves on co-expression of full-length AIF2 (p35S::AIF2FL-EGFP) and ICE1 (p35S::ICE1FL-EGFP), against the non-transformed mock control", "value": "~5", "unit": "fold"}]}]}
